The record followed here is US20220390449A1, “NEW S[…] FOR THE LATENT FORM OF TOXOPLASMOSIS” (INSERM (INSTITUT NATIONAL DE LA SANTÉ ET DE LA RECHERCHE …, priority 2019, published 2022).

Entries after “also recorded” stand apart in the source; their conditions may differ.

B1: ERB-1H4: single domain antibody (VHH) selected on His rBCLA, SEQ ID NO: 62 (protein)
VHH: EVQLVESGGGLVQAGGSLRLSCVASGRTFSRYTVGWFRQAPGKEREFVAGISWSGSRTSYADSVKGRFTISRDNDKTTGYLQMNSLKPEDTAVYYCAAITKLYENNIPRSVSDYALWGQGTQVTVSS
modifications: Synthetic VHH ERB-1H4
B2: ERB-1F2: single domain antibody (VHH) selected on His rBCLA, SEQ ID NO: 61 (protein)
VHH: EVQLVESGGGLVQVGGSLRLSCAASGRTFRRNTIGWFRQAPGKEREFVAAISWSGTRTKYADPVKGRFTISRDNDKNTAYLQMNTLKPDDTAVYYCAADGALYGSDVSGLARVYDYWGQGTQVTVSS
modifications: Synthetic VHH ERB-1F2
B3: ERB-1G6: single domain antibody (VHH) selected on His rBCLA, SEQ ID NO: 57 (protein)
VHH: EVQLVESGGGLVQAGGSLGLSCAASGRPGRIFTRNSMAWFRQAPGKEREFVASINWSGTSTSYADSVKGRFAISRDNDKNTVYLQMNSLKPEDTAVYYCAADSALYGSMHKTPADYEYWGQGTQVTVSS
modifications: Synthetic VHH ERB-1G6
B4: ERB-1F1: single domain antibody (VHH) selected on His rBCLA, SEQ ID NO: 60 (protein)
VHH: EVQLVESGGGLVQAGDSLRLSCAASGRTFSRVTMGWFRQAPGKEREFVAGISWSGTRTDYPDSVKGRFTVSRDNAKKTMWLQMSSLRPEDTAVYHCAADSTLYGSAISNNREAYAYWGQGTQVTVSS
modifications: Synthetic VHH ERB-1F1
B5: ERB-1A12: single domain antibody (VHH) selected on His rBCLA, SEQ ID NO: 59 (protein)
VHH: EVQLVESGGGLVQAGGSLRLSCAASGRTFSRYFMGWFRQAPGKEREFVAGIIWSGTRTYYVDSVKGRFTISRDNDKRMVYLQMNSLKPEDTAVYYCAAYKEYYGTPAQLYAAASYDYWGQGTQVTVSS
modifications: Synthetic VHH ERB-1A12
B6: ERB-1B11: single domain antibody (VHH) selected on His rBCLA, SEQ ID NO: 58 (protein)
VHH: EVQLVESGGGLVQAGGSLRLTCAASGRTFRRSNMAWFRQPPGKERDFVAAIKWSGSSTNYADSVKGRFTISRDNDKNTVYLQMNVLKPEDTGVYYCAQESSLYSNYLPVVSSAYDYWGQGTQVTVSS
modifications: Synthetic VHH ERB-1B11
B7: ERB-1D7: single domain antibody (VHH) selected on His rBCLA, SEQ ID NO: 63 (protein)
VHH: KVQLVESGGGLVQAGGSLRLSCAASGRTFSRRGMGWFRQAPGKEREFVATIKWSGTSTDYADSVKGRFTISRDNAKNTVYLQMNNLQPEDTAVYYCAADRQLYRDGYVPLNEYEDWGQGTQVTVSS
modifications: Synthetic VHH ERB-1D7

In the test the target is His rBCLA. Put plainly: ELISA binding of purified VHH to immobilized His rBCLA. Particulars: 200 ng/well antigen, serial dilution of VHH. Also on record: species or system Toxoplasma gondii. The procedure: The binding of purified VHH to immobilized His rBCLA was analyzed by ELISA. A MaxiSorp plate was coated with 200 ng/well antigen overnight at 4° C. in PBS. After blocking the wells with 4% MPBS, a serial dilution of the VHH was added to the coated wells and incubated for 1 hour at room temperature. After washing unbound VHH, bound VHH were detected using a mouse-anti-flag (clone M2) and donkey-anti-mouse coupled to HRP. Binding was quantified by measuring colorimetric reaction of OPD+H2O2 at 490 nm. ERB-1G6, ERB-1B11 and ERB-1A12 show a subnanomolar apparent affinity to immobilized His rBCLA. ERB-1F1 and ERB-1F2 show a low nanomolar affinity. ERB-1H4 and ERB-1D7 show a […] apparent affinity to His rBCLA.
In the case of B1, the “apparent affinity to immobilized His rBCLA” value (“apparent affinity” for short) is listed as “molar”.

With B2, the “apparent affinity” value is “low nanomolar”.

On to B3, for which the “apparent affinity” value is “subnanomolar; also recorded: very good”.

B4: the “apparent affinity” value is listed as “low nanomolar”.

For the molecule B5, the “apparent affinity” value is listed as “subnanomolar; also recorded: very good”.

Take B6: the “apparent affinity” value is listed as “subnanomolar; also recorded: very good”.

Take B7: the “apparent affinity” value is recorded as “molar”.
